What all share (assay): SPR
Test [1] deals with monomeric streptavidin variant mSA, wild type.
The target is the same in test [2]. This is another data set of the same source.
The target of test [3] is monomeric streptavidin variant mSA with the S27A mutation.

Like-named read-outs stand apart in the source and are kept apart here.

What is called Kd is the constant that tells how readily two partners part at equilibrium. A higher Kd goes with lower affinity. Take “Smt3 SUMO protein biotinylated at the N-terminus with biotin C2 maleimide (from UniProt Q12306 1-101) (natural protein)”: the dissociation constant (Kd) in test [1] was found to be 9.6 nM.

B1: 4NBX.B-biotin103 variant v119 (VHH)
VHH: QVQLQESGGGLAQAGGSLRLSCAASGRTFSHAPMAWFRQPPGKEREFVAAGSSTGRTTYYADSVKGRFTISRDNAKNTVYLQMNSLKPEDTAVYYCAAAPYGCSHYRDEYAYWGQGTQVTVSS
Turning to B1, in test [2], the Kd was determined as 0.9 nM.

B2: 4NBX.B-biotin103 variant v186_Fr (VHH)
VHH: QVQLQESGGGLVQAGGSLRLSCAASGRTFSRSPMAWYRQPPGKEREFVAAGSSTGTTTYYADSVKGRFTISRDNAKNTVYLQMNSLKPEDTAVYYCAAAPLGCARKFAESAYWGQGTQVTVSS
In the case of B2, the Kd in test [2] turned out to be 0.2 nM; in test [3] it was 54 nM.

B3: 4NBX.B-biotin103 variant v149 (VHH)
VHH: QVQLQESGGGLAQAGGSLRLSCAASGRTFSRSPMAWFRQPPGKEREFVAAGSSTGRTTYYADSVKGRFTISRDNAKNTVYLQMNSLKPEDTAVYYCAAAPYGCARYRDEYAYWGQGTQVTVSS
For the molecule B3, in test [2], the Kd was 0.12 nM, the fold higher ka than v119 is 4 fold and the fold lower kd than v119 was determined as 2 fold.
